Data from the nanobody polyreactivity screen of Harvey et al. (2022).

Assay: yeast display, Sf9 membrane polyspecificity reagent, FACS + sequencing; frameworks hold sequencing errors
Outline: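 A nanobody's polyreactivity label depends on the gate it was sorted from. Yeast display cells were stained with 10% biotinylated, detergent-solubilized Sf9 membrane reagent for 1 hour at 4 °C, enriched on streptavidin microbeads and sorted by FACS. The low and high (top ~1%) gates were set on anti-HA fluorescence for expression and streptavidin fluorescence for reagent binding.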

Which “polyreactivity (PSR sort gate)” value does the source give for “QVQLVESGGGLVQAGGSLRLSCAASGRTFRPYTMGWYRQAPGKERELVAAISASGGRTYYADSVKGRFTISRDNAKNTVYLQMNSLKPEDTAVYYCAARVRDSLVYGGWDDYWGQGTQVTVSS” here?
Its value is “high polyreactivity”.

Which “polyreactivity (PSR sort gate)” value does the source give for “QVQLVESGGGLVQAGGSLRLSCAASGRTFRQNVMGWYRQAPGKERELVAAITASGGNTYYADSVKGRFTISRDNAKNTVYLQMNSLKPEDTAVYYCNAVPYLAMDYWGQGTQVTVSS” here?
The value was “high polyreactivity”.

For “QVQLVESGGGLVQAGGSLRLSCAASGRTFRRNAMGWYREAPGKERELVASINRGGGKNYADSVKGRFTISRDNAKNTVYLQMNSLKPEDTAVYYCAAVPIAADKANGYDYWGQGTQVTVSS”, which “polyreactivity (PSR sort gate)” value is on record?
The value was “low polyreactivity”.

Which “polyreactivity (PSR sort gate)” value does the source give for “QVQLVESGGGLVQAGGSLRLSCAASGRTFRRNVMGWYRQAPGKERELVAAISSGANTNYADSVKGRFTISRDNAKNTVYLQMNSLKPEDTAVYYCAAGEGWRSRTFDYWGQGTQVTVSS” here?
Its value is “low polyreactivity”.

Which “polyreactivity (PSR sort gate)” value does the source give for “QVQLVESGGGLVQAGGSLRLSCAASGRTFRRTAMGWYRQAPGKERELVAAISSRGGSTYYADSVKWRFTISRDNAKNTVYLQMNSLKPEDTAVYYCNRVLTPIWYYVPLYSQPTYYYWGQGTQVTVSS” here?
Its value is “high polyreactivity”.

For “QVQLVESGGGLVQAGGSLRLSCAASGRTFRRYAKGWYRQAPGKERELVATIRSGDNTNYADSVKGRFTISRDNAKNTVYLQMNSLKPEDTAVYYCNRSPKSGQVTYLYSVNAHYDYWGQGTQVSVSS”, which “polyreactivity (PSR sort gate)” value is on record?
The value was “low polyreactivity”.

Which “polyreactivity (PSR sort gate)” value does the source give for “QVQLVESGGGLVQAGGSLRLSCAASGRTFRRYAMGWYRQAPGKERELVAAITWGAGSTRYADSVKGRFTISRDNAKNTVYLQMNSLKPEDTAVYYCAAENTRAYGMYYWGQGTQVTVSS” here?
The value was “high polyreactivity”.

With “QVQLVESGGGLVQAGGSLRLSCAASGRTFRRYAMGWYRQAPGKERELVASISRTGGSTYYADSVKGRFTISRDNSKNTVYLQMNSLKPEDTAVFYCNAGPSVGWYNYWGQGTQVTVSS” as the sequence, how does the “polyreactivity (PSR sort gate)” value read?
The value was “high polyreactivity”.

Which “polyreactivity (PSR sort gate)” value does the source give for “QVQLVESGGGLVQAGGSLRLSCAASGRTFRRYNMGWYRQAPGKERELVAAITTSGGSTYYSDSVKGRFTISRDNAKNTVYLQMNSLIPEDTAVYYCAATRRYSGDYWGQGTQVSVSS” here?
Its value is “high polyreactivity”.

Which “polyreactivity (PSR sort gate)” value does the source give for “QVQLVESGGGLVQAGGSLRLSCAASGRTFRRYTMGWYRQAPGKERELVATISKTGGSTYYADSVKGRFTISRDNAKNTVYLQMNSLKPEDTAVYYCAARSVALFIMYYWGQGTQVTVSS” here?
Its value is “high polyreactivity”.

Which “polyreactivity (PSR sort gate)” value does the source give for “QVQLVESGGGLVQAGGSLRLSCAASGRTFRRYVMGWYRQAPGKERELVAAIRWTGGSTYYADSVKGRFTISRDNAKNTVYLQMNSLKPEDTAVYYCAASSYIGYGYLGQGTQVTVSS” here?
Its value is “high polyreactivity”.

For “QVQLVESGGGLVQAGGSLRLSCAASGRTFRRYVMGWYRQAPGKERELVAAISYSGATTYYADSVKGRFTISRDNAKNTVYLQMNSLKPEDTAVYYCAATAPGDRYYWGQGTQVTVSS”, which “polyreactivity (PSR sort gate)” value is on record?
The value was “high polyreactivity”.

For “QVQLVESGGGLVQAGGSLRLSCAASGRTFRSIAMGWYRKAPGKERELVAAITSSGGRTYYADSVKGRFTISRDNAKNTVYVQMNSLTPEDTAVYYCNAGRQHPPRYSSYDYWGQGTQVTVSS”, which “polyreactivity (PSR sort gate)” value is on record?
Its value is “high polyreactivity”.

For “QVQLVESGGGLVQAGGSLRLSCAASGRTFRSNAMGWYRQAPGKEREFVAAISSGGSTKYADSVKGRFTISRDNAKNTVYLQMNSLKPEDTAVYYCAAVSHSRYWGEGTQVTVSS”, which “polyreactivity (PSR sort gate)” value is on record?
Its value is “high polyreactivity”.

Which “polyreactivity (PSR sort gate)” value does the source give for “QVQLVESGGGLVQAGGSLRLSCAASGRTFRSNTMGWYRQAPGKEREFVAVITYSAGSTYYADSVKGRFTISRDNAKNTVYLQMNSLKPEDTAVYYCAATSKYRGDYWGQGTQVTVSS” here?
Its value is “high polyreactivity”.

For “QVQLVESGGGLVQAGGSLRLSCAASGRTFRSYAMGWYRQAPGKERELVAAISSGGSTNYADSVKGRFTISRDNAKNTVYLQMNSLKPEDTAVYYCNKVVHSFRFPYRYDMDYWGQGTQVTVSS”, which “polyreactivity (PSR sort gate)” value is on record?
Its value is “high polyreactivity”.

For “QVQLVESGGGLVQAGGSLRLSCAASGRTFRSYAMGWYRQAPGKERELVVAISLSGGSTYYADSVKGRFTISRDNAKNTVYLQMNSLKPVDTAVYYCNADLIKGTYRWYEGGSQYGYWGQGTQVTVSS”, which “polyreactivity (PSR sort gate)” value is on record?
The value was “low polyreactivity”.

For “QVQLVESGGGLVQAGGSLRLSCAASGRTFRSYDMGWYRQAPGKERELVAAISEDGGYTYYADSVKGRFTISRDNAKNSVYLQMNSVKPEDTAVYYCAKDRPGPLRWWFLYGYWGQGTQVTVSS”, which “polyreactivity (PSR sort gate)” value is on record?
Its value is “low polyreactivity”.

Which “polyreactivity (PSR sort gate)” value does the source give for “QVQLVESGGGLVQAGGSLRLSCAASGRTFRTNAMGWYRQAPGKERELVAAITSDGTYYADSVKGRFTISRDNAKKTVYLQMNSLKPEDTAVYYCNVDDRETRDDYWGQGTQVTVSS” here?
The value was “low polyreactivity”.

With “QVQLVESGGGLVQAGGSLRLSCAASGRTFRTNVMGGYIQAPGKERELVADISKRGGSTYYADSVKGRFTISRDNAMNTVYVQINSQKPDDTAVYYCAADYSPYYYHQGDYWGQGTQVTVSS” as the sequence, how does the “polyreactivity (PSR sort gate)” value read?
Its value is “high polyreactivity”.

With “QVQLVESGGGLVQAGGSLRLSCAASGRTFRTNVMGWYRQAPGKERELVAAISKRGGSTYYADSVKGRFTISRDNAKYTVYLQMNILNPEDTAGYYCAAVFSPYYDHQGDYWGQGTQVTVSS” as the sequence, how does the “polyreactivity (PSR sort gate)” value read?
The value was “high polyreactivity”.

For “QVQLVESGGGLVQAGGSLRLSCAASGRTFRTYAMGWYRQAPGKERELVAAITSRAGSTYYADSVKGRFTISRDNAKNSVYLQMNSLKPEDTAVYYCAKQYYYGWYWGEDYWGQGTQVTVSS”, which “polyreactivity (PSR sort gate)” value is on record?
The value was “low polyreactivity”.

For “QVQLVESGGGLVQAGGSLRLSCAASGRTFRVNAMGWYRQAPGKERELVASITYSGGSTYYADSVKGRFTISRDNAKNTVYLQMNSLKQEDTAVYYCAADWYRSPYDYWGQGTQVTVSS”, which “polyreactivity (PSR sort gate)” value is on record?
Its value is “low polyreactivity”.

Which “polyreactivity (PSR sort gate)” value does the source give for “QVQLVESGGGLVQAGGSLRLSCAASGRTFRVNTMGWYRQAPGQEWELVAAITSSDRTYYADSVKGRFTISRDNAKNTVYLQMNSLKPDDTAVYYCAAYSEYYGVYYWGQGTQVTVSS” here?
The value was “low polyreactivity”.

With “QVQLVESGGGLVQAGGSLRLSCAASGRTFRVYAMGWYRQAPGKERELVAAIRSGGNTNYADSVKGRFTISRDNAKNTVYLQMNSLKPEDTAVYYCAATTYVVASRYVGTLGDDYWGQGTQVTVSS” as the sequence, how does the “polyreactivity (PSR sort gate)” value read?
Its value is “high polyreactivity”.

Which “polyreactivity (PSR sort gate)” value does the source give for “QVQLVESGGGLVQAGGSLRLSCAASGRTFRVYAMGWYRQAPGKERELVATITSSGGSTYYADSVKGRFTISRDNAKNTVYLQMNSLKPEDTAVYYCNVSVYYNYDSSYYYWGQGTQVTVSS” here?
The value was “low polyreactivity”.

Which “polyreactivity (PSR sort gate)” value does the source give for “QVQLVESGGGLVQAGGSLRLSCAASGRTFRVYTMGWYRQAPGKERELVAVISGRGGSTSYADSVKGRFTISRDNAKNTVDLQMNSLKPEDTAVYYCAARGRAHWHYDYWGQGTQVTVSS” here?
The value was “high polyreactivity”.

Which “polyreactivity (PSR sort gate)” value does the source give for “QVQLVESGGGLVQAGGSLRLSCAASGRTFRYKAMGWYRQAPGKERELVAAITYSGGITYYADSVKGRFTISRDNAKNTVYLQMNSLKPEDTAVYYCAADDPYRTTYEYDYWGQGTQVTVSS” here?
Its value is “low polyreactivity”.

With “QVQLVESGGGLVQAGGSLRLSCAASGRTFRYNAKGSYIQAPGKERELVAAINWNGGSTYYADSVKGSFTISRDNAKNTVYLQMNSLKQEDTAVYYCNADFYHRYDWGQGTQVSVSS” as the sequence, how does the “polyreactivity (PSR sort gate)” value read?
The value was “high polyreactivity”.

With “QVQLVESGGGLVQAGGSLRLSCAASGRTFRYNAMGWYRQAPGKERELVAAISRGANTNYADSVKGRFTISRDNAKNTVYLQMNSLKPADTAVYYCAAVPGYRFYYWGQGTQVTVSS” as the sequence, how does the “polyreactivity (PSR sort gate)” value read?
The value was “high polyreactivity”.

With “QVQLVESGGGLVQAGGSLRLSCAASGRTFRYNAMGWYRQAPGKERELVAAISRGANTNYADSVKGRFTISRDNAKNTVYLQMNSLKPEDTAVYYCAAVPGYRFYYWGQGTQVTVSS” as the sequence, how does the “polyreactivity (PSR sort gate)” value read?
Its value is “high polyreactivity”.

Which “polyreactivity (PSR sort gate)” value does the source give for “QVQLVESGGGLVQAGGSLRLSCAASGRTFRYNAMGWYRQAPGKERELVASIRRGGSTNYADSVKGRFTISRDNAKNTVYLQMNRLKPEDTAVYYCAAGGYYWGQGTQVTVSS” here?
The value was “high polyreactivity”.
